Biological target: T1, human heat shock protein Hsp90α (human, UniProt P07900 2-732)
T1 construct: Target protein of the dot blot assay
Assay: dot blot assay, direct interaction with Hsp90α

## DEIVKELRSRYNIST [SNC1 (15aa)]
  binding result: no binding
